Experimental data reported in patent CN116143909A.

Columns and labels:
[1] = molecular target: HIV-1 P24抗原(购自菲鹏) (HIV-1) (UniProt P04591); assay: indirect ELISA, P24 coated at 1 ug/ml, antibody at 125 ng/ml, goat anti-human IgG-HRP
[2] = molecular target: HIV-1 P24抗原(购自菲鹏) (HIV-1) (UniProt P04591); assay: indirect ELISA, P24 coated at 1 ug/ml, antibody at 250 ng/ml, goat anti-human IgG-HRP
[3] = molecular target: HIV-1 P24抗原(购自菲鹏) (HIV-1) (UniProt P04591); assay: indirect ELISA, P24 coated at 1 ug/ml, antibody at 62.5 ng/ml, goat anti-human IgG-HRP
[4] = molecular target: HIV-1 P24抗原(购自菲鹏) (HIV-1) (UniProt P04591); assay: indirect ELISA, P24 coated at 1 ug/ml, antibody at 31.25 ng/ml, goat anti-human IgG-HRP
[5] = molecular target: HIV-1 P24抗原(购自菲鹏) (HIV-1) (UniProt P04591); assay: indirect ELISA, P24 coated at 1 ug/ml, antibody at 15.625 ng/ml, goat anti-human IgG-HRP
[6] = molecular target: HIV-1 P24抗原(购自菲鹏) (HIV-1) (UniProt P04591); assay: indirect ELISA, P24 coated at 3 ug/ml, supernatant of transiently transfected CHO cells diluted 1000-fold, goat anti-human IgG-HRP

Molecule	OD450 (ref 630 nm) [1] [OD]	OD450 (ref 630 nm) [2] [OD]	OD450 (ref 630 nm) [3] [OD]	OD450 (ref 630 nm) [4] [OD]	OD450 (ref 630 nm) [5] [OD]	OD450 (ref 630 nm) [6] [OD]
对照抗体 (antibody)	1.28	1.57	0.756	0.537	0.337	–
6F13RMb1 (antibody, human IgG1, kappa, V domains shown) VH: QVQLVQSGAEVKKPGSSVKVSCKASGGTFSSYAISWVRQAPGQGLEWMGGSIPIFGTTHYAQKFQGRVAIIVDESTSTSYMELSSLRSDDTAAYYCARAATAIFGVPRNNFYAMEVWGQGTTVTVSS VL: DIVMTQSPLSLSVTPGEPASISCRSSQSILHSNGYNYLDWYLQRPGQSPKLLIYIGSTRASGVPDRFSGSGSGTDFTLKISRVEAEDVGVYYCMQAVQTFFGPGTKVDLKR	1.42	1.52	1.03	0.673	0.455	> 1
